Assays:
[1] = biological target: monkey (Macaca fascicularis) 5T4 expressed on CHO-S cells (CHO-fas5T4 cells) (monkey (Macaca fascicularis)) (UniProt Q4R8Y9); test: flow cytometry, CHO-fas5T4 cells
[2] = biological target: dog 5T4 expressed on CHO-S cells (CHO-d5T4 cells) (dog); test: flow cytometry, CHO-d5T4 cells
[3] = biological target: human 5T4 expressed on CHO-S cells (CHO-h5T4 cells) (human) (UniProt Q13641); test: flow cytometry, CHO-h5T4 cells
[4] = biological target: mouse 5T4 expressed on CHO-S cells (CHO-m5T4 cells) (mouse) (UniProt Q9Z0L0); test: flow cytometry, CHO-m5T4 cells
Chain of mouse 5T4 expressed on CHO-S cells (CHO-m5T4 cells) (mouse) (Q9Z0L0 32-361): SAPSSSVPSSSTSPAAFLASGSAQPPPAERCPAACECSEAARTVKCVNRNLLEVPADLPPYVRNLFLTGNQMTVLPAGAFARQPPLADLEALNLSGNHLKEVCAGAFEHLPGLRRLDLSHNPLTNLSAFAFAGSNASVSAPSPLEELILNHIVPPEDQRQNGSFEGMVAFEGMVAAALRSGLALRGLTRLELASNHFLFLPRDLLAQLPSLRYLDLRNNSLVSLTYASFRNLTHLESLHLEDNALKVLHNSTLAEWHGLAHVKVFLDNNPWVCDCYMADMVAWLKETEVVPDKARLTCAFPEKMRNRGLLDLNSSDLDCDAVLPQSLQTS

Chain of monkey (Macaca fascicularis) 5T4 expressed on CHO-S cells (CHO-fas5T4 cells) (monkey (Macaca fascicularis)) (Q4R8Y9 35-355): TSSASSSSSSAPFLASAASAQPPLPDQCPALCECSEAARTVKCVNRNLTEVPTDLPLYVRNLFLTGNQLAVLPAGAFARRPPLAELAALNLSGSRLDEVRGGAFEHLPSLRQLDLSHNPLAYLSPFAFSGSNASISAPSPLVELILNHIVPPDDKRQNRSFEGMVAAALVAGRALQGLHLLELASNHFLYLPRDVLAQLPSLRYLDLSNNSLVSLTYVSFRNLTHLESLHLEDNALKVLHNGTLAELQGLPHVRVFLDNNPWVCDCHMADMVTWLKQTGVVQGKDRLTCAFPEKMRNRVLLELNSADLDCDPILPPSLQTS
Chain of human 5T4 expressed on CHO-S cells (CHO-h5T4 cells) (human) (Q13641 32-355): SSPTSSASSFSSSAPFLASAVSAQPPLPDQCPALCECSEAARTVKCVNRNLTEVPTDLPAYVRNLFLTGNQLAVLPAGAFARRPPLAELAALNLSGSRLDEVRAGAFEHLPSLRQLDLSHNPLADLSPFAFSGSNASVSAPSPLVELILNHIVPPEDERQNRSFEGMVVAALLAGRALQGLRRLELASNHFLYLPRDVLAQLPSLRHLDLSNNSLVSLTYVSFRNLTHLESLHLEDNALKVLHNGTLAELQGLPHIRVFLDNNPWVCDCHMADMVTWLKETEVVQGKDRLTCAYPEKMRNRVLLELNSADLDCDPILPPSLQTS
Chain of dog 5T4 expressed on CHO-S cells (CHO-d5T4 cells) (dog) (chain, as listed by the source limits assumed): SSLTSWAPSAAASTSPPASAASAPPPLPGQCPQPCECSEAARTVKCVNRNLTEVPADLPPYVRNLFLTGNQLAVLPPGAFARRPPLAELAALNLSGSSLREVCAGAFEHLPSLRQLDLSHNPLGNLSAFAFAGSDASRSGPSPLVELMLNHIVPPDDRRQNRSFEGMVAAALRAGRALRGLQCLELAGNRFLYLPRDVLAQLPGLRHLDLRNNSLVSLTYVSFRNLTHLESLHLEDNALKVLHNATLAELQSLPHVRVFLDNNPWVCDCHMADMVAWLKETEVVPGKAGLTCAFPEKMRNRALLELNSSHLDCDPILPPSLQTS

NC + secondary antibody was tested, and the Percentage of Positive Cells [1] was 1.6%, the Percentage of Positive Cells [2] was 0.2% and the Percentage of Positive Cells [3] was 2%. The Percentage of Positive Cells [4] was 0.2%.
NC was tested, and the Percentage of Positive Cells [1] was 1.3%, the Percentage of Positive Cells [2] was 1% and the Percentage of Positive Cells [3] was 1%. The Percentage of Positive Cells [4] was 0.7%.
